In patent US6548475:

Biological target: molecules present at the cell surface of both cerebellar neurons and PC12 cells
Assay: cell-based or functional assay

“purified recombinant human KAL protein (isolated from transfected CHO cells, clone CHKAL2-3/dll), coated on plastic (from UniProt P23352 25-680)” gave a percentage of adherent cells (mouse cerebellar neurons on KAL-coated surface, 90 min) of 80%.
